From article PMC5749176

B1: Shape-4 (dsDNA)
DNA 1: GGGCGTTCGGGACATAATGGCGGGAACCCCC
DNA 2: GGGGGTTCCCGCCATTATGTCCCGAACGCCC
B2: Shape-3 (dsDNA)
DNA 1: AAACAAAAAGAACACCGTTTTATTTTGGTGT
DNA 2: ACACCAAAATAAAACGGTGTTCTTTTTGTTT
B3: Shape-1 (dsDNA)
DNA 1: GGCCAAAAAGAACACCGTGTACTTTTGGGCT
DNA 2: AGCCCAAAAGTACACGGTGTTCTTTTTGGCC
B4: Shape-2 (dsDNA)
DNA 1: GGGCGGAGGGTACACCGTGTACTCTTCCCCC
DNA 2: GGGGGAAGAGTACACGGTGTACCCTCCGCCC

Tests used:
GR-DBD = GR-DBD (human, UniProt P04150 418-506); test: EMSA
AR-DBD = AR-DBD (human, UniProt P10275 557-647); test: EMSA
Sequence of AR-DBD (P10275 557-647): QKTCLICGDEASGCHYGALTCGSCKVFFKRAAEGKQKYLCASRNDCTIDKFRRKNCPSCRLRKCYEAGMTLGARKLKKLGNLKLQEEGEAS

Sequence of GR-DBD (P04150 418-506): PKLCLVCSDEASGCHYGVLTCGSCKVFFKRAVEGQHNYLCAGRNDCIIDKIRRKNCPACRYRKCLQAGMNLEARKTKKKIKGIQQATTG

Binder | binding result (GR-DBD) | binding result (AR-DBD)
B1 | binds | 
B2 |  | binds
B3 |  | binds
B4 |  | binds
